# According to US20020077284A1 (WHITEHEAD INSTITUTE FOR BIOMEDICAL RESEARCH, published 2002):
# Positions of bridges follow the written chain, without caps; N, C: chain ends. Non-standard residues stand in square brackets, D forms with d.
# Tests used:
# [1] = target: T1, HIV-1 envelope protein gp41 subunit (HXB2 envelope), N-helix coiled-coil (HIV-1 (HXB2), UniProt P04578 512-856); experiment: cell-based or functional assay
# [2] = target: T2, N36 peptide of HIV-1 gp41 (HIV-1); experiment: circular dichroism thermal melt at 222 nm; 10 µM C34 peptide + 10 µM N36 in PBS pH 7.0
# T2 construct: Synthetic peptide; forms the trimeric N36 coiled-coil of the N36/C34 complex
# [3] = target: T1, HIV-1 envelope protein gp41 subunit …; experiment: cell-based or functional assay; remark: listed apart in the source
# [4] = target: T2, N36 peptide of HIV-1 gp41; experiment: circular dichroism thermal melt of the N36/C34 variant complex
Binder,Tm (apparent melting temperature of the N36/C34 complex) [2],IC50 values (nanomolar) for cell fusion [1],IC50 values (nanomolar) for virus entry [1],Tm (apparent melting temperature of the N36/C34 complex) [4],other results
Ac-[dK][dK][dK][dK]G[dA][dC][dE][dL][dL]G[dW][dE][dW][dA][dW][dL][dC][dA][dA]-NH2 (disulfide 7-18 (inferred)) [D10pep5a],,,,,"IC50 for inhibition of syncytia formation, against D10pep5 [1]: ~2 fold"
Ac-[dK][dK]G[dA][dC][dE][dL][dL]G[dW][dE][dW][dA][dW][dL][dC][dA][dA]-NH2 (disulfide 5-16 (inferred)) [D10pep5],,,,,"IC50, syncytia assay [1]: ~6000 nM"
Ac-[dK][dK]G[dA][dC][dE][dA][dR][dH][dR][dE][dW][dA][dW][dL][dC][dA][dA]-NH2 (disulfide 5-16 (inferred)) [D10pep1a],,,,,"IC50 for inhibition of syncytia formation, against D10pep1 [1]: ~2 fold"
Ac-WMEWDAEINNYTSLIHSLIEESQNQQEKNEQELL-NH2 (Position in gp41 numbering) [C34 peptide Arg^633→Ala],65 ° C.,,,,IC50 (nM) cell fusion [3]: 0.76 nM; IC50 (nM) viral entry [3]: 2.6 nM
Ac-WMEADREINNYTSLIHSLIEESQNQQEKNEQELL-NH2 (Position in gp41 numbering) [C34 peptide Trp^631→Ala],37 ° C.,,,,decrease in inhibitory activity against wildtype C34 [1]: ~30 fold
Ac-WMEWDREANNYTSLIHSLIEESQNQQEKNEQELL-NH2 (Position in gp41 numbering) [C34 peptide Ile^635→Ala],55 ° C.,,,,decrease in inhibitory activity against wildtype C34 [1]: ~2 fold; IC50 (nM) cell fusion [3]: 0.96 nM; IC50 (nM) viral entry [3]: 4.1 nM
Ac-WMEGDREINNYTSLIHSLIEESQNQQEKNEQELL-NH2 (Position in gp41 numbering) [C34 peptide Trp^631→Gly],,25 nM,38 nM,35 ° C.,
Ac-WMELDREINNYTSLIHSLIEESQNQQEKNEQELL-NH2 [C34 peptide Trp^631→Leu],,3.2 nM,5.3 nM,50 ° C.,
Ac-WMEVDREINNYTSLIHSLIEESQNQQEKNEQELL-NH2 [C34 peptide Trp^631→Val],,4.5 nM,13 nM,43 ° C.,
Ac-WMEFDREINNYTSLIHSLIEESQNQQEKNEQELL-NH2 [C34 peptide Trp^631→Phe],,1.6 nM,3.61 nM,59 ° C.,
